Data taken from patent US20070253967A1, “Agent for the treatment and/or prophylaxis of microcirculatory disorders” (priority 1997, published 2007).

Target: T1, fibrinogen (Homo sapiens, UniProt P02675+P02679)
T1 construct: then loaded with heparinized plasma (40 ml); from tissue; host or cells: heparinized plasma
Experiment: Specifity of the coupled Sepharose by SDS gel electrophoresis
Assay type: binding
Conditions: statement in the description
Description: The pentapeptide Gly-Pro-Arg-Pro-Lys was synthetized as trifluoracetate and coupled to cyanobromide-active Sepharose CL-4B. The specifity of the coupled Sepharose was tested by means of SDS gel electrophoresis.

T1 sequence (P02671 20-629 partner limits assumed): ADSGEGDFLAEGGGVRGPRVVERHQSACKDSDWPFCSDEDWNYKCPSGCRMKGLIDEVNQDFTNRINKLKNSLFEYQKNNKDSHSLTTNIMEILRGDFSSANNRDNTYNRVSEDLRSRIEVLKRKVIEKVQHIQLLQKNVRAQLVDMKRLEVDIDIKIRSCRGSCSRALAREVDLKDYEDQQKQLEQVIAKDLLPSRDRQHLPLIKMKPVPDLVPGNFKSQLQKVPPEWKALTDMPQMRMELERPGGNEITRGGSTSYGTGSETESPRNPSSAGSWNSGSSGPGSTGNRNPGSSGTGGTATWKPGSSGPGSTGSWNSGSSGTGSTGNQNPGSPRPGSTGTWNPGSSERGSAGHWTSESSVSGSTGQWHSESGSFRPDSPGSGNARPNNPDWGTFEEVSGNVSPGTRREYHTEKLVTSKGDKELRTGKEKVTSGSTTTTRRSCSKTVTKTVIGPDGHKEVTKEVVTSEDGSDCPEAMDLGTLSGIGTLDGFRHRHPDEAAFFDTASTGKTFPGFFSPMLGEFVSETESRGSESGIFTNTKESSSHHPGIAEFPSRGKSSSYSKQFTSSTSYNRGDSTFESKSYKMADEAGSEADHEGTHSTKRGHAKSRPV
T1 sequence (P02675 31-491): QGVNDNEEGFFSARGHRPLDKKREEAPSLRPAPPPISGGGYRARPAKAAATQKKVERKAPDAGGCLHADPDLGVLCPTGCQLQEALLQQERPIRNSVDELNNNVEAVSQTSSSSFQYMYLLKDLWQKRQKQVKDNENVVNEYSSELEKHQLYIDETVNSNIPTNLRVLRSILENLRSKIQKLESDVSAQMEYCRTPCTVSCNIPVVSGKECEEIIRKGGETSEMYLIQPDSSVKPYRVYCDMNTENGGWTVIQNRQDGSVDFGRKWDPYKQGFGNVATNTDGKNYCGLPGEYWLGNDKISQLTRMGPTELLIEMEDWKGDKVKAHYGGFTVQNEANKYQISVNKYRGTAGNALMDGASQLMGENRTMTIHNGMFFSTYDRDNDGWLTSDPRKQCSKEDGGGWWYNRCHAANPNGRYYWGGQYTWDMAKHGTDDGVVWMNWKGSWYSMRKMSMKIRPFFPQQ
T1 sequence (P02679 27-453): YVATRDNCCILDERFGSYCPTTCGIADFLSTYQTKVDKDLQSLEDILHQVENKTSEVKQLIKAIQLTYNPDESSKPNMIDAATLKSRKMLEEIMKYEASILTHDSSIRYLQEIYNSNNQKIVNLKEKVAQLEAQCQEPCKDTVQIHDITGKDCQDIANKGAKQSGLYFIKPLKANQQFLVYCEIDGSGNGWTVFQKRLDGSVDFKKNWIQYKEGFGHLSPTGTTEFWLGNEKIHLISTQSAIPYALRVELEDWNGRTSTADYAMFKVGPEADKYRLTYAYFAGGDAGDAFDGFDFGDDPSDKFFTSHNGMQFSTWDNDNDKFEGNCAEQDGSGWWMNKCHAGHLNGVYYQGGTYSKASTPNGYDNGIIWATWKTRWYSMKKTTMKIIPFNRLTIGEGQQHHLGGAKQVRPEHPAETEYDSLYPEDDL

specifity for fibrinogen and/or fibrin: very high specifity
Substance: Gly-Pro-Arg-Pro-Lys (GPRPK; printed: Gly-Pro-Arg-Pro-Lys) [pentapeptide ligand for fibrinogen and/or fibrin]
